In FireProtDB (doi:10.1074/jbc.274.53.37533):

B1: Cytochrome c-551, P00099 (parent)
chain: MKPYALLSLLATGTLLAQGAWAEDPEVLFKNKGCVACHAIDTKMVGPAYKDVAAKFAGQAGAEAELAQRIKNGSQGVWGPIPMPPNAVSDDEAQTLAKWVLSQK

Variants of: B1
Settings: Pseudomonas aeruginosa (strain ATCC 15692 / DSM 22644 / CIP 104116 / JCM 14847 / LMG 12228 / 1C / PRS 101 / PAO1), pH 5, CD, structure 451C, whole UniProt chain shown

Row | Variant | ddG of mutation (higher = less stable) (25 °C, GdnHCl, HCl) | denaturant m value (25 °C, GdnHCl, HCl) | denaturant midpoint (higher = more stable) (25 °C, GdnHCl, HCl) | ddG of mutation (higher = less stable) (50.4 °C, Thermal, HCl 10 mM) | Tm (Thermal, HCl) | change of melting temperature, mutant - wild type (higher = more stable) (Thermal, HCl) | unfolding enthalpy (van 't Hoff) (Thermal, HCl)
1 | V100I | -0.06 kcal/mol | 2.02 kcal/mol/M | 2.44 M | -1 kcal/mol | 58.8 °C | 8.4 °C | 43.8 kcal/mol
2 | F29A |  |  |  | -1.1 kcal/mol | 59.9 °C | 9.5 °C | 48.2 kcal/mol
3 | F29A V35M |  |  |  | -1.4 kcal/mol | 62.4 °C | 12 °C | 46.7 kcal/mol
4 | V35M |  |  |  | -0.4 kcal/mol | 53.6 °C | 3.2 °C | 43.8 kcal/mol
5 | F56Y |  |  |  | -1.9 kcal/mol | 66.4 °C | 16 °C | 61.2 kcal/mol
6 | F56Y E65Y |  |  |  | -2.4 kcal/mol | 70.7 °C | 20.3 °C | 63.7 kcal/mol
7 | F56Y Q59R |  |  |  | -1.5 kcal/mol | 62.9 °C | 12.5 °C | 54.5 kcal/mol
8 | F56Y Q59R E65Y |  |  |  | -2 kcal/mol | 57.9 °C | 17.5 °C | 56.4 kcal/mol
9 | Q59R |  |  |  | -0.5 kcal/mol | 54.7 °C | 4.3 °C | 51.3 kcal/mol
10 | Q59R E65Y |  |  |  | -0.5 kcal/mol | 54.7 °C | 4.3 °C | 46.2 kcal/mol
11 | E65Y |  |  |  | -0.6 kcal/mol | 55.5 °C | 5.1 °C | 57.4 kcal/mol
